Values quoted from earlier work, collected in PMC12805357, “Cooperative ligand binding in a bacterial heme-based oxygen sensor” (The Journal of Biological Chemistry, 2025).
Blank lines part the entries; values can stand above or below the molecule they belong to.

Legend:
[1] = set-up: method as in earlier work; conditions: myoglobins; ref 7 of the supplement (Faulkner et al., 1995)
[2] = HemAT-Bs

B1: hhMb: myoglobin comparison protein listed as hhMb in Table S2, literature values (protein, UniProt P68082 2-154, looked up)
Myoglobin: GLSDGEWQQVLNVWGKVEADIAGHGQEVLIRLFTGHPETLEKFDKFKHLKTEAEMKASEDLKKHGTVVLTALGGILKKKGHHEAELKPLAQSHATKHKIPIKYLEFISDAIIHVLHSKHPGDFGADAQGAMTKALELFRNDIAAKYKELGFQG
- Midpoint 1 (mV vs SHE) [1]: 37 mV vs SHE

- n (Hill coefficient), O2 binding [2]: 0.45
- Kd ([2]; read-out: Kd, equilibrium oxygen affinity): 10 µM
B2: HemAT-Bs: globin-coupled sensor from Bacillus subtilis, MCP output domain (protein, UniProt O07621 1-432, looked up)
Heme-based aerotactic …: MLFKKDRKQETAYFSDSNGQQKNRIQLTNKHADVKKQLKMVRLGDAELYVLEQLQPLIQENIVNIVDAFYKNLDHESSLMDIINDHSSVDRLKQTLKRHIQEMFAGVIDDEFIEKRNRIASIHLRIGLLPKWYMGAFQELLLSMIDIYEASITNQQELLKAIKATTKILNLEQQLVLEAFQSEYNQTRDEQEEKKNLLHQKIQETSGSIANLFSETSRSVQELVDKSEGISQASKAGTVTSSTVEEKSIGGKKELEVQQKQMNKIDTSLVQIEKEMVKLDEIAQQIEKIFGIVTGIAEQTNLLSLNASIESARAGEHGKGFAVVANEVRKLSEDTKKTVSTVSELVNNTNTQINIVSKHIKDVNELVSESKEKMTQINRLFDEIVHSMKISKEQSGKIDVDLQAFLGGLQEVSRAVSHVAASVDSLVILTEE
